According to the Human Domainome abundance scans (Beltran et al. 2025):
± gives the uncertainty stated by the source.

B1: POU domain, class 4, transcription factor 1, residues 266 to 347; numbered along this chain, Q01851 (parent)
chain: RELEAFAERFKQRRIKLGVTQADVGSALANLKIPGVGSLSQSTICRFESLTLSHNNMIALKPILQAWLEEAEGAQREKMNKP

Variants of: B1
Assay: abundance fitness (aPCA) (normalised: wild type 0, dead -1); higher = more abundant; growth selection in yeast, the domain comes from the species named
Details: Homo sapiens

Row | Variant | abundance fitness
1 | K32P | -0.204 ± 0.13
2 | K32W | -0.176 ± 0.071
3 | K32M | 0.018 ± 0.089
4 | K32Q | -0.022 ± 0.11
5 | K32A | -0.003 ± 0.078
6 | N80T | -0.007 ± 0.059
7 | N80S | 0.051 ± 0.04
8 | N80H | 0.019 ± 0.066
9 | N80M | -0.004 ± 0.045
10 | N80K | -0.001 ± 0.065
11 | P82Q | 0.01 ± 0.071
12 | R1F | 0.028 ± 0.12
13 | R1H | -0.326 ± 0.18
14 | R1L | -0.084 ± 0.059
15 | R1Q | -0.325 ± 0.17
16 | R1I | 0.039 ± 0.067
17 | R1M | 0.004 ± 0.045
18 | R1D | 0.008 ± 0.066
19 | R1T | -0.011 ± 0.04
20 | A22I | -0.218 ± 0.24
21 | P62D | -0.188 ± 0.077
22 | P62F | -0.518 ± 0.11
23 | P62N | -0.286 ± 0.13
24 | P62E | -0.413 ± 0.067

Row | Variant | abundance fitness
25 | N30F | 0.037 ± 0.13
26 | N30V | -0.233 ± 0.061
27 | N30T | -0.046 ± 0.077
28 | L39M | 0.01 ± 0.059
29 | L39K | -0.409 ± 0.08
30 | L39H | -0.113 ± 0.26
31 | L39F | -0.211 ± 0.16
32 | I33L | 0.024 ± 0.028
33 | I33W | -0.114 ± 0.03
34 | L31D | -0.152 ± 0.046
35 | L31T | 0.051 ± 0.035
36 | K11H | 0.175 ± 0.18
37 | K11V | -0.142 ± 0.056
38 | K11F | -0.627 ± 0.2
39 | Q21I | 0.022 ± 0.075
40 | Q21C | -0.083 ± 0.064
41 | Q21F | -0.072 ± 0.24
42 | Q21S | -0.09 ± 0.058
43 | V36T | 0.24 ± 0.15
44 | V36M | -0.189 ± 0.22
45 | V36G | -0.142 ± 0.11
46 | V36R | -0.214 ± 0.062
47 | D23S | -0.027 ± 0.049
48 | D23A | -0.009 ± 0.066

Row | Variant | abundance fitness
49 | D23P | -0.913 ± 0.44
50 | E70C | -0.125 ± 0.037
51 | E70K | 0.004 ± 0.035
52 | E70D | -0.018 ± 0.037
53 | E70H | -0.077 ± 0.046
54 | E70S | -0.006 ± 0.03
55 | E70I | -0.161 ± 0.053
56 | E70W | -0.311 ± 0.032
57 | E70T | -0.026 ± 0.035
58 | E70R | -0.046 ± 0.022
59 | E70L | -0.18 ± 0.029
60 | S38R | 0.048 ± 0.096
61 | S38H | 0.047 ± 0.38
62 | S38L | -0.11 ± 0.11
63 | S38C | -0.222 ± 0.16
64 | S38F | 0.147 ± 0.18
65 | S40M | -0.359 ± 0.096
66 | S40R | -0.155 ± 0.041
67 | S40Y | -0.307 ± 0.24
68 | S40F | -0.263 ± 0.11
69 | S40P | -0.15 ± 0.066
70 | A66R | -0.022 ± 0.023
71 | A66P | -0.619 ± 0.058
72 | S26M | -0.049 ± 0.082

Row | Variant | abundance fitness
73 | S26V | -0.049 ± 0.044
74 | S26F | -0.008 ± 0.078
75 | S26Q | 0.086 ± 0.087
76 | L28N | -0.459 ± 0.071
77 | L28S | -0.639 ± 0.043
78 | L28F | -0.129 ± 0.045
79 | L28D | -0.624 ± 0.065
80 | R46L | -0.176 ± 0.05
81 | R46D | 0.014 ± 0.11
82 | R46E | 0.055 ± 0.061
83 | R46N | 0.047 ± 0.2
84 | R46H | -0.203 ± 0.17
85 | R46P | -0.576 ± 0.18
86 | K61R | -0.051 ± 0.04
87 | K61C | -0.012 ± 0.057
88 | K61F | -0.349 ± 0.11
89 | K61Q | 0.018 ± 0.074
90 | R9T | 0.058 ± 0.12
91 | R9L | 0.061 ± 0.05
92 | R9E | -0.019 ± 0.064
93 | R9W | -0.154 ± 0.062
94 | R9V | -0.047 ± 0.065
95 | R9G | -0.015 ± 0.041
96 | A7S | -0.203 ± 0.028

Row | Variant | abundance fitness
97 | R13S | 0.014 ± 0.038
98 | R13Q | -0.053 ± 0.05
99 | R13L | -0.148 ± 0.037
100 | R13F | -0.203 ± 0.066
101 | R13C | -0.369 ± 0.048
102 | R13W | -0.321 ± 0.05
103 | R13V | -0.065 ± 0.035
104 | R13E | -0.065 ± 0.056
105 | E72I | -0.179 ± 0.12
106 | E72Y | -0.138 ± 0.24
107 | E72D | -0.259 ± 0.11
108 | E72V | -0.35 ± 0.045
109 | E4M | 0.04 ± 0.064
110 | E4K | 0.056 ± 0.063
111 | E4N | -0.086 ± 0.097
112 | E4T | -0.031 ± 0.053
113 | E4Q | -0.035 ± 0.059
114 | E4D | -0.031 ± 0.059
115 | M57I | -0.16 ± 0.099
116 | M57N | -0.19 ± 0.17
117 | M57C | -0.268 ± 0.11
118 | M57W | -0.289 ± 0.049
119 | M57S | -0.309 ± 0.053
120 | M57T | -0.374 ± 0.062

Row | Variant | abundance fitness
121 | M57E | -0.706 ± 0.085
122 | A27Q | -0.046 ± 0.058
123 | A27F | -0.284 ± 0.16
124 | A27L | -0.288 ± 0.06
125 | A27S | -0.023 ± 0.058
126 | A27D | -0.043 ± 0.081
127 | A29K | 0.02 ± 0.14
128 | A29L | -0.092 ± 0.13
129 | R76I | -0.029 ± 0.04
130 | R76K | -0.006 ± 0.039
131 | R76C | 0.012 ± 0.033
132 | R76Y | -0.124 ± 0.05
133 | R76G | 0.007 ± 0.02
134 | L64E | -0.709 ± 0.12
135 | L64S | -0.793 ± 0.12
136 | Q12N | 0.031 ± 0.042
137 | Q12H | -0.097 ± 0.042
138 | Q12F | -0.133 ± 0.044
139 | Q12P | -0.896 ± 0.079
140 | Q12S | -0.06 ± 0.03
141 | Q12Y | -0.13 ± 0.047
142 | Q12M | -0.034 ± 0.039
143 | E69Q | -0.018 ± 0.07
144 | E69N | -0.022 ± 0.08

Row | Variant | abundance fitness
145 | E69D | 0.011 ± 0.088
146 | E69R | -0.111 ± 0.038
147 | E69F | -0.174 ± 0.12
148 | E69H | -0.076 ± 0.092
149 | E69K | -0.036 ± 0.06
150 | G73W | -0.205 ± 0.067
151 | G73E | 0.125 ± 0.054
152 | G73V | 0.071 ± 0.049
153 | G73L | 0.056 ± 0.048
154 | G73C | -0.013 ± 0.075
155 | Q65M | -0.056 ± 0.032
156 | Q65T | -0.06 ± 0.029
157 | Q65D | 0.01 ± 0.041
158 | Q65C | -0.14 ± 0.041
159 | Q65G | -0.086 ± 0.024
160 | E48H | -1.12 ± 0.12
161 | E48T | -0.954 ± 0.08
162 | S53Q | -0.013 ± 0.07
163 | S53V | -0.389 ± 0.055
164 | S53K | -0.269 ± 0.073
165 | S53R | -0.139 ± 0.04
166 | T20A | -0.052 ± 0.14
167 | T20R | -0.087 ± 0.1
